# Source: patent US20140287952A1 (ALDERBIO, published 2014)
# Assays:
# [1] = target: T1, human CGRP alpha (human, UniProt P06881 83-119, N-terminally or C-terminally biotinylated (the two ELISAs were run separately)); assay: ELISA: biotinylated human CGRP alpha on neutravidin plates (the sheet does not say whether N- or C-terminally biotinylated), antibody dilution series, OD450
# T1 construct: Bought peptide; N- and C-terminally biotinylated forms were captured on neutravidin plates; also called HuCGRP alpha; CGRPα
# T1 peptide (looked up): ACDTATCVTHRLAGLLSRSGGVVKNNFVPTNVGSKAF
# [2] = target: T2, human PCSK9 (human, UniProt Q8NBP7 31-692, biotinylated in the ELISA (site not stated)); assay: cell-based or functional assay
# T2 sequence (Q8NBP7 31-692 limits assumed): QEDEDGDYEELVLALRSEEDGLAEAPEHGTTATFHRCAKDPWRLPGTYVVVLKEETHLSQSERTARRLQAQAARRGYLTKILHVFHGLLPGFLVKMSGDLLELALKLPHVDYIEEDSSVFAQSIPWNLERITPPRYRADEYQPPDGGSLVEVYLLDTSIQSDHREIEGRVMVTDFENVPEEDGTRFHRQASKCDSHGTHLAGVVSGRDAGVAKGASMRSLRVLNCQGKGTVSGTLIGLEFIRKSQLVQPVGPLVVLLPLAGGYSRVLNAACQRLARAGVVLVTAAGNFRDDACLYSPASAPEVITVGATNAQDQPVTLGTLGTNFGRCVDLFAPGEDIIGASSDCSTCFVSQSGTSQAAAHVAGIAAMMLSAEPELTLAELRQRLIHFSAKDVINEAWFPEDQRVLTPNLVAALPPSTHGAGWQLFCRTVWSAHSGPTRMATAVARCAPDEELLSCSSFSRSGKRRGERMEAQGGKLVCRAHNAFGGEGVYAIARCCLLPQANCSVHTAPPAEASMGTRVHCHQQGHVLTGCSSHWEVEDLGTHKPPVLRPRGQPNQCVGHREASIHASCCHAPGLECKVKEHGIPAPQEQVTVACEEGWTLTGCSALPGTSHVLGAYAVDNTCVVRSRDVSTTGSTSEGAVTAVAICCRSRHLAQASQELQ
# [3] = target: T2, human PCSK9; assay: ELISA: biotinylated human PCSK9 on Neutravidin plates, antibody dilution series, anti-human IgG Fc-HRP, OD450
# [4] = target: T3, human beta-NGF (human, UniProt P01138 122-241, limits assumed, biotinylated in the ELISA (site not stated)); assay: ELISA: biotinylated hu B-NGF on Neutravidin plates, antibody dilution series, anti-human IgG Fc-HRP, OD450
# T3 construct: Biotinylated and captured on Neutravidin plates in the ELISA; Used unlabelled in the TF1 proliferation assay; also called hu B-NGF; huB-NGF
# T3 sequence (P01138 122-241 limits assumed): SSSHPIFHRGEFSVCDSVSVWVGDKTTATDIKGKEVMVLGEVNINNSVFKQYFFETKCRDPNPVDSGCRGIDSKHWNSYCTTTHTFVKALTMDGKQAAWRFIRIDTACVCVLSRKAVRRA
Binder,EC50 [1],EC50 [4],other results
"Ab4 (antibody, V domains shown) VH: QSLEESGGRLVTPGTPLTLTCSVSGIDLSGYYMNWVRQAPGKGLEWIGVIGINGATYYASWAKGRFTISKTSSTTVDLKMTSLTTEDTATYFCARGDIWGPGTLVTVSS VL: QVLTQTPSPVSAAVGSTVTINCQASQSVYHNTYLAWYQQKPGQPPKQLIYDASTLASGVPSRFSGSGSGTQFTLTISGVQCNDAAAYYCLGSYDCTNGDCFVFGGGTEVVVKR",0.159 nM,,
"Ab3 (antibody, V domains shown) VH: EVQLVESGGGLVQPGGSLRLSCAVSGLDLSSYYMQWVRQAPGKGLEWVGVIGINDNTYYASWAKGRFTISRDNSKTTVYLQMNSLRAEDTAVYFCARGDIWGQGTLVTVSS VL: QVLTQSPSSLSASVGDRVTINCQASQSVYDNNYLAWYQQKPGKVPKQLIYSTSTLASGVPSRFSGSGSGTDFTLTISSLQPEDVATYYCLGSYDCSSGDCFVFGGGTKVEIKR",0.127 nM,,
"Ab2 (antibody, V domains shown) VH: SVEESGGRLVTPGTPLTLTCTVSGFSLSSYAMSWVRQAPGKGLEWIGIIDAIDNTYYASWAKGRFTISKTSTTVDLKMTSLTTGDTATYFCARASILGYSIATGFNIWGPGTLVTVSS VL: AYDMTQTPASVEVAVGGTVTIKCQASQSISSHLAWYQQKSGQPPKLLIYRASTLESGVSSRFKGSGSGTEFTLTISDLECADAATYYCQQGYGVSDVDNGFGGGTEVVVK",,,"IC50; LDL uptake assay: BODIPY-LDL uptake (RFUs) by HepG2 cells, antibody pre-incubated with 3 µg/mL PCSK9; RFUs rise with the antibody concentration [2]: 17.3 nM; EC50 [3]: 0.174 nM"
"Ab8 (antibody, V domains shown) VH: QVQLVESGGGVVQPGRSLRLSCAASGFTFSSYAMIWVRQAPGKGLEYIGYIDTDTSAYYASSVKGRFTISRDNSKNTLYLQMSSLRAEDTAVYYCARSYAAYGGYPATFDPWGQGTLVTVSS VL: DIQMTQSPSSLSASVGDRVTITCQASEDIYNLLAWYQQKPGKVPKLLIYSASTLASGVPSRFSGSGSGTDYTLTISSLQPEDVATYYCQNNYLVTTYGVAFGGGTKVEIK",,0.254 nM,
"Ab7 (antibody, V domains shown) VH: QEQLKESGGRLVTPGTPLTLTCTVSGFSLSSYAMIWVRQAPGKGLEYIGYIDTDTSAYYASWVKGRFTISRTSTTVDLKITSPTTEDTATYFCARSYAAYGGYPATFDPWGPGTLVTVSS VL: DVVMTQTPASVSQPVGGTVTIKCQASEDIYNLLAWYQQKPGQPPKLLIYSASTLASGVPSRFKGSGSGTEYTLTISGLECADAATYYCQNNYLVTTYGVAFGGGTEVVVK",,0.182 nM,
